# Data published in patent publication US6406896.
# Key:
# [1] = system: Tnp sC7(157,171) R8C,E58V,D217A,E344K,L372Q; assay: cell_activity; conditions: mating out, dam+ strain
# [2] = system: sC7 L372Q minus one R8C,E58V,A157T,T171S,D217A,E344K; assay: cell_activity; conditions: mating out, dam+ strain
# [3] = system: Tnp sC7(171,217) R8C,E58V,A157T,E344K,L372Q; assay: cell_activity; conditions: mating out, dam+ strain
# [4] = system: sC7 D217A minus one R8C,E58V,A157T,T171S,E344K,L372Q; assay: cell_activity; conditions: mating out, dam+ strain
# [5] = system: Tnp T171S plus one T171S; assay: cell_activity; conditions: mating out, dam+ strain
# [6] = system: Tnp sC7(157,217) R8C,E58V,T171S,E344K,L372Q; assay: cell_activity; conditions: mating out, dam+ strain
# [7] = system: sC7 R8C minus one E58V,A157T,T171S,D217A,E344K,L372Q; assay: cell_activity; conditions: mating out, dam+ strain
# [8] = system: Tnp E58V plus one E58V; assay: cell_activity; conditions: mating out, dam+ strain
# [9] = system: sC7 E344K minus one R8C,E58V,A157T,T171S,D217A,L372Q; assay: cell_activity; conditions: mating out, dam+ strain
# [10] = molecular target: Tn5 transposase wild-type (Tnp WT) (UniProt Q46731); assay: cell_activity; conditions: mating out
# [11] = system: Tnp L372Q plus one L372Q; assay: cell_activity; conditions: mating out, dam+ strain
# [12] = system: sC7 A157T minus one R8C,E58V,T171S,D217A,E344K,L372Q; assay: cell_activity; conditions: mating out, dam+ strain
# [13] = system: sC7 E58V minus one R8C,A157T,T171S,D217A,E344K,L372Q; assay: cell_activity; conditions: mating out, dam+ strain
# [14] = system: sC7 T171S minus one R8C,E58V,A157T,D217A,E344K,L372Q; assay: cell_activity; conditions: mating out, dam+ strain
# [15] = system: Tnp sC7v2.0 (sC7(157,171,217)) R8C,E58V,E344K,L372Q; assay: cell_activity; conditions: mating out, dam+ strain
# [16] = molecular target: Tnp sC7 R8C,E58V,A157T,T171S,D217A,E344K,L372Q (UniProt Q46731); assay: cell_activity; conditions: mating out
# [17] = system: Tnp E344K plus one E344K; assay: cell_activity; conditions: mating out, dam+ strain
# [18] = system: Tnp sC7v2.0 purified R8C,E58V,E344K,L372Q; assay: cleavage_in_vitro; conditions: dam methylation of adenines in the two GATC sites (four methyl groups per end); in vitro transposition, 3 h, 37C, 280 nM Tnp, 35.5 nM pGT4
# [19] = system: Tnp D217A plus one D217A; assay: cell_activity; conditions: mating out, dam+ strain
# [20] = system: Tnp R8C plus one R8C; assay: cell_activity; conditions: mating out, dam+ strain
# [21] = system: Tnp A157T plus one A157T; assay: cell_activity; conditions: mating out, dam+ strain
# [22] = dam methylation of adenines in the two GATC sites (four methyl groups per end)
# [23] = dam methylation of adenines in the two GATC sites (four methyl groups per end), dam+ strain
substance,measurement,setting,value
Dam-methylated Tn5 inside end (IEME),activity (transposition frequency),[1]; [22],0.0065
same,activity (transposition frequency),[2]; [22],0.00026
same,activity (transposition frequency),[3]; [22],0.0058
same,activity (transposition frequency),[4]; [22],0.0037
same,activity (transposition frequency),[5]; [22],5.6e-09
same,activity (transposition frequency),[6]; [22],0.0084
same,activity (transposition frequency),[7]; [22],0.0031
same,activity (transposition frequency),"[8]; dam methylation of adenines in the two GATC sites (four methyl groups per end), 40000-fold over WT",0.0004
same,activity (transposition frequency),[9]; [22],0.00055
same,activity (transposition frequency),[10]; [23],1e-08
same,activity (transposition frequency),"[11]; dam methylation of adenines in the two GATC sites (four methyl groups per end), 8.9-fold over WT",8.9e-08
same,activity (transposition frequency),[12]; [22],0.0031
same,activity (transposition frequency),[13]; [22],1.8e-06
same,activity (transposition frequency),[14]; [22],0.0028
same,activity (transposition frequency),[15]; [22],0.0074
same,activity (transposition frequency),[16]; [23],0.0026
same,activity (transposition frequency),"[17]; dam methylation of adenines in the two GATC sites (four methyl groups per end), 4.3-fold over WT",4.3e-08
same,activity (% supercoiled plasmid converted),[18],66
"Tn5 inside end (IE), unmethylated",activity (transposition frequency),[10]; dam- strain,6.5e-05
same,activity (transposition frequency),[16]; dam- strain,0.0018
Tn5 outside end (OE),activity (transposition frequency),[19],3.4e-06
same,activity (transposition frequency),[1],7e-06
same,activity (transposition frequency),[2],2.8e-07
same,activity (transposition frequency),[3],1.18e-05
same,activity (transposition frequency),[4],4.5e-06
same,activity (transposition frequency),[5],1.8e-06
same,activity (transposition frequency),[6],2.25e-05
same,activity (transposition frequency),[7],6e-06
same,activity (transposition frequency),[8],1.4e-06
same,activity (transposition frequency),[9],1.7e-05
same,activity (transposition frequency),"[10]; dam- strain, 3.1e-6 in dam+ strain",6.5e-05
same,activity (transposition frequency),[11],1.1e-05
same,activity (transposition frequency),[20],4e-07
same,activity (transposition frequency),[21],6.6e-07
same,activity (transposition frequency),[12],4e-06
same,activity (transposition frequency),[13],1.1e-06
same,activity (transposition frequency),[14],2.6e-06
same,activity (transposition frequency),[15],7.1e-06
same,activity (transposition frequency),"[16]; dam- strain, 3.3e-6 in dam+ strain",3.7e-05
same,activity (transposition frequency),[17],6.8e-07
